From patent US20110286981A1 (ZEALAND PHARMA A S, published 2011)

B1: L006-0084 (peptide)
peptide: H-HSQGTFTSDYSKYLDERRAKDFIQWLLSA-NH2
B2: L006-0136 (peptide)
peptide: H-HSQGTFTSDYSKYLDERRAKDFIEWLLAA-NH2
B3: L006-0094 (peptide)
peptide: H-HSQGTFTSDYSKYLDKRRAEDFIKWLLSA-NH2
B4: L006-0128 (peptide)
peptide: H-HSQGTFTSDYSKYLDERRAKDFIRWLLSA-NH2
B5: L006-0090 (peptide)
peptide: H-HSQGTFTSDYSKYLDSRRAQDFIEWLLSA-NH2
B6: L006-0129 (peptide)
peptide: H-HSQGTFTSDYSKYLDERRAKDFIDWLLSA-NH2
B7: L006-0138 (peptide)
peptide: H-HSQGTFTSDYSKYLDERRAKDFIEWLLRA-NH2
B8: L006-0082 (peptide)
peptide: H-HSQGTFTSDYSKYLDERRAQDFIEWLLSA-NH2
B9: L006-0081 (peptide)
peptide: H-HSQGTFTSDYSKYLDSRRAKDFIEWLLSA-NH2
B10: L006-0093 (peptide)
peptide: H-HSQGTFTSDYSKYLDDRRARDFIDWLLSA-NH2
B11: L006-0108 (peptide)
peptide: H-HSQGTFTSDYSKYLDERAAKDFIEWLLSA-NH2

Molecular target: human glucagon-like peptide 1 receptor (human, UniProt P43220 24-463)
Sequence (P43220 24-463): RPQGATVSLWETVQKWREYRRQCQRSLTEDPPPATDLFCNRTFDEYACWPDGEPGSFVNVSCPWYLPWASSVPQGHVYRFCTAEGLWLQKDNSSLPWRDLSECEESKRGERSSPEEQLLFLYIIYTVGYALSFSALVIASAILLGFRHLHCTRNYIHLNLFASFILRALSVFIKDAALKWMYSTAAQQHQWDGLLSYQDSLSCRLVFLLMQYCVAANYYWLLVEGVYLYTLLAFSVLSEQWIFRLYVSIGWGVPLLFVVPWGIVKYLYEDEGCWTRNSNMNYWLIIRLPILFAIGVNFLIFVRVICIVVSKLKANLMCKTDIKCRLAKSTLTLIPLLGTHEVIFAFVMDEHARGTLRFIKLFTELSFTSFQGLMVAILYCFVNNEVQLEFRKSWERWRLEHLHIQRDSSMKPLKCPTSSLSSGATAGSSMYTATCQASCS
Experiment: cell-based or functional assay

Binder	GLP-1R EC50 (cAMP formation in HEK293 cells expressing human GLP-1-R) [nmol]
B1	0.07
B2	0.22
B3	0.16
B4	0.16
B5	0.15
B6	0.2
B7	0.29
B8	0.09
B9	0.14
B10	0.07
B11	0.53

Molecular target: human glucagon receptor (human, UniProt P47871 26-477)
Experiment: cell-based or functional assay

Binder	GLUR EC50 (cAMP formation in HEK293 cells expressing human Glucagon-R) [nmol]
B1	0.13
B2	0.33
B3	0.25
B4	0.22
B5	0.22
B6	0.24
B7	0.38
B9	0.23
B10	0.1
B11	0.81
